Laboratory results published in patent US20030061635A1 (published 2003).

What was measured:
[1] = biological target: T1, Arabidopsis thaliana CaM isoform 6 (Arabidopsis thaliana, UniProt Q03509 1-149); test: slot blot of peptide probed with 35S-labeled AtCaM isoform
T1 construct: Used 35S-labeled, unlabeled or HRP-labeled, depending on the assay; also called CaM6; CaM-6

[2] = biological target: T2, Arabidopsis thaliana CaM isoform 2 (Arabidopsis thaliana, UniProt P0DH97 1-149); test: as above
T2 construct: also called CaM2; CaM-2

[3] = biological target: T3, Arabidopsis thaliana CaM isoform 4 (Arabidopsis thaliana, UniProt P0DH96 1-149); test: as above
T3 construct: Used 35S-labeled, unlabeled or HRP-labeled, depending on the assay; also called CaM4; CaM-4

[4] = biological target: T1, Arabidopsis thaliana CaM isoform 6; test: tryptophan fluorescence spectroscopy, equimolar peptide and CaM, excitation 290 nm
Method: (§1) FIG. 4A is the analysis of CaM binding to a synthetic 18-amino acid peptide (MP-1, SEQ ID NO:2) by electrophoretic mobility shift polyacrylamide gels with 4 M urea. Lane 1 contained CaM alone (166 pmol), lanes 2-4 contained CaM (166 pmol) and 166, 332 and 664 pmol, respectively of synthetic MP-1. BCaM is bovine CaM, CaM2, CaM4, and CaM6 are the 2, 4, and 6 isoforms of Arabidopsis CaM. […] CaM and MP-1 (166 pmol) were incubated in 5 mM Tris, pH 7.3 and 0.5 mM CaCl₂. The excitation was measured at 290 nm and bandwidth for excitation and emission was 5 nm.
(§2) The tryptophan fluorescence spectra of free and CaM-bound synthetic peptide were recorded with a Hitachi-F-3010/4010 spectrofluorimeter as described in Reddy et al. (1996) supra. NPG1 peptide and AtCaMs (166 pmol each) were mixed in a […] reaction volume. The tryptophan residue in free and CaM-bound synthetic NPG1 peptide was excited at 290 nm and the emission wavelength values were recorded from 300 to 400 nm with a bandwidth of 5 nm in a 5-mm quartz cell at 25° C. Samples were incubated for 1 h at 25° C. prior to spectroscopic measurements. Corrections were made for the protein and solvent blanks.

[5] = biological target: T2, Arabidopsis thaliana CaM isoform 2; test: as above
Method: as §1, §2

[6] = biological target: T3, Arabidopsis thaliana CaM isoform 4; test: as above
Method: as §1, §2

[7] = biological target: T4, bovine CaM (calmodulin) (bovine, UniProt P62157 2-149); test: as above
Method: as §1, §2

[8] = biological target: T1, Arabidopsis thaliana CaM isoform 6; test: gel mobility shift, 4 M urea, CaCl2; 166 pmol CaM and 166 pmol peptide
Text: (§3) To determine the stoichiometry of the CaM-peptide complex, we performed binding studies using the synthetic peptide (MP-1) and CaM in the presence of Ca²⁺ or EGTA. The binding of the synthetic peptide to CaM was detected by a gel mobility shift assay in polyacrylamide gels containing 4 M urea (FIG. 4A). […] In the presence of CaCl₂ the synthetic peptide retarded the migration of CaM in the gel indicating the formation of a complex between the peptide and CaM (FIG. 4A). […] At a molar ratio of 2:1 and 4:1 (peptide:CaM), the entire CaM migrated as a complex, and the band corresponding to the free CaM disappeared (FIG. 4A, lanes 3 and 4).
(§4) The interaction of CaM with synthetic peptide was also analyzed using electrophoretic mobility shift of CaM in the presence of a synthetic peptide. Each of the AtCaM isoforms and bovine CaM (166 pmol) were incubated with increasing concentrations of maize NPG1-synthetic peptide (166, 332, and 664 pmol) in the presence of 4 M urea, in a buffer containing 100 mM Tris-HCl, pH 7.5, and 1 mM CaCl₂ or 5 mM EGTA at room temperature for 1 h in a total volume of […]. Then, […] of sample buffer (0.375 M Tris-HCl, pH 6.8, 30% glycerol, and 0.023% bromphenol blue) was added to the samples and the mixture was electrophoresed in 12% polyacrylamide gels containing 4 M urea or 7.5% glycerol, 0.375 M Tris-HCl, pH 8.8, and either 1 mM CaCl₂ or 5 mM EGTA. The gels were run at a constant voltage of 25 V per gel in an electrode buffer (25 mM Tris-HCl, pH 8.3, 192 mM glycine, and either 1 mM CaCl₂ or 5 mM EGTA). The gels were stained with 0.25% Coomassie Blue R-250 in 7.5% acetic acid and 50% methanol for 1 h and then destained with 30% methanol and 7% acetic acid.

[9] = biological target: T2, Arabidopsis thaliana CaM isoform 2; test: as above
Text: as §3, §4

[10] = biological target: T3, Arabidopsis thaliana CaM isoform 4; test: as above
Text: as §3, §4

[11] = biological target: T4, bovine CaM (calmodulin); test: as above
Text: as §3, §4

[12] = biological target: T1, Arabidopsis thaliana CaM isoform 6; test: tryptophan fluorescence spectroscopy, equimolar peptide and CaM (166 pmol each), excitation 290 nm
Method: as §1, §2

[13] = biological target: T2, Arabidopsis thaliana CaM isoform 2; test: as above
Method: as §1, §2

[14] = biological target: T3, Arabidopsis thaliana CaM isoform 4; test: as above
Method: as §1, §2

[15] = biological target: T4, bovine CaM (calmodulin); test: as above
Method: as §1, §2

B1: synthetic peptide MP-2 (different region of maize NPG1, negative control) (peptide)
peptide: AKLDQGSLLRVKAKLKVAQSSPM
B1: no binding [1]; no binding [2]; no binding [3].

B2: KCBP-peptide (CaM-binding peptide of kinesin-like calmodulin binding protein) (peptide)
peptide: ISSKEMVRLKKLVAYWKEQAGKK
notes: Positive control peptide
B2: binds [1]; binds [2]; binds [3].

B3: synthetic peptide MP-1 (18-amino acid CaM-binding domain of maize NPG1) (peptide)
peptide: VSKGWRLLALILSAQQRF
notes: Chemically synthesized, purity about 95%; also called the synthetic peptide; maize NPG1-synthetic peptide
For B3, the “wavelength of peak tryptophan emission of the peptide with CaM (free peptide about 350 nm)” value (shortened to “wavelength … (free peptide about 350 nm)”) [4] was ~315 nm, the “wavelength … (free peptide about 350 nm)” value [5] was ~315 nm and the “wavelength … (free peptide about 350 nm)” value [6] was ~315 nm. For the same binder, the “wavelength … (free peptide about 350 nm)” value [7] was ~315 nm, the “percent of CaM shifted at a molar ratio of 1:1 (peptide:CaM)” value [8] was ~50% and the “percent of CaM shifted at a molar ratio of 1:1 (peptide:CaM)” value [9] was ~50%. The “percent of CaM shifted at a molar ratio of 1:1 (peptide:CaM)” value [10] was ~50%, the “percent of CaM shifted at a molar ratio of 1:1 (peptide:CaM)” value [11] was ~50% and the “tryptophan fluorescence intensity of the peptide with CaM (free peptide about 0.1)” value [12] was ~6.1. For the same binder, the “tryptophan fluorescence intensity of the peptide with CaM (free peptide about 0.1)” value [13] was ~8.4, the “tryptophan fluorescence intensity of the peptide with CaM (free peptide about 0.1)” value [14] was ~4.5 and the “tryptophan fluorescence intensity of the peptide with CaM (free peptide about 0.1)” value [15] was ~6.1.
